# Results reported in patent US20160053011A1 (ABCLON, published 2016).
# Target: T1, HER2-ECD-His protein (human, UniProt P04626 23-652)
# T1 construct: extracellular domain; not shown: His tag
# Assay: SPR, IgG captured by goat anti-human IgG on CM5, HER2-ECD-His analyte
# Experimental: The goat anti-human IgG (Invitrogen, #H10500) at a concentration of 2000 RU was immobilized to a CM5 sensor chip via ECD/NHS method. Then, the antibodies were allowed to bind at a rate of 50 μL/min for 5 minutes, and allowed the buffer to flow thereonto for 5 minutes for stabilization purpose. […] After analyzing each of the concentrations, they were recycled using 10 mM Glycine (pH 1.5) and performed the subsequent assays. The affinities of the antibodies were analyzed via BIAevaluation software.
Kd,fold decrease in Koff (kd) compared to hz1E11,fold improvement of affinity compared to hz1E11,koff,kon,Binder
1.1 nM,8.4 fold,20 fold,9.9e-05 s⁻¹,86000 M⁻¹ s⁻¹,"hz1E11-154 (IgG) (antibody, V domains shown, heavy chain variable region the same as hz1E11) VH: EVQLVESGGGLVQPGGSLRLSCAASGFTFSSYTMSWVRQAPGKGLEWVAYISNGGGSTYYPDTVKGRFTISRDNAKNSLYLQMNSLRAEDTAVYYCARHLGGTASFDYWGQGTLVTVSS VL: DIQMTQSPSSLSASVGDRVTITCLASQTIGTWLAWYQQKPGKAPKLLIYVATSLADGVPSRFSGSGSGTDFTLTISSLQPEDFATYYCQQTAFSPWTFGQGTKVEIK"
1.5 nM,8.4 fold,15 fold,9.9e-05 s⁻¹,64000 M⁻¹ s⁻¹,"hz1E11-133 (IgG) (antibody, V domains shown, heavy chain variable region the same as hz1E11) VH: EVQLVESGGGLVQPGGSLRLSCAASGFTFSSYTMSWVRQAPGKGLEWVAYISNGGGSTYYPDTVKGRFTISRDNAKNSLYLQMNSLRAEDTAVYYCARHLGGTASFDYWGQGTLVTVSS VL: DIQMTQSPSSLSASVGDRVTITCLASQTIGTWLAWYQQKPGKAPKLLIYVATSLADGVPSRFSGSGSGTDFTLTISSLQPEDFATYYCQQNAYAPWTFGQGTKVEIK"
5.2 nM,–,–,0.0002 s⁻¹,38000 M⁻¹ s⁻¹,"hz1E11-3 (IgG) (antibody, V domains shown, heavy chain variable region the same as hz1E11) VH: EVQLVESGGGLVQPGGSLRLSCAASGFTFSSYTMSWVRQAPGKGLEWVAYISNGGGSTYYPDTVKGRFTISRDNAKNSLYLQMNSLRAEDTAVYYCARHLGGTASFDYWGQGTLVTVSS VL: DIQMTQSPSSLSASVGDRVTITCLASQTIGTWLAWYQQKPGKAPKLLIYVATSLADGVPSRFSGSGSGTDFTLTISSLQPEDFATYYCDQMYSTPWTFGQGTKVEIK"

# Target: T1, HER2-ECD-His protein
# Assay: SPR (Biacore 3000), HER2-ECD-His amine-coupled to CM5, periplasmic extract as analyte
# Experimental: In order to select clones with improved Koff among the selected clones, the clones were analyzed via Biacore 3000 (GE Healthcare). The HER2-ECD-His protein was immobilized to a CM5 sensor chip via an amine coupling method using ECD/NHS. […] The Koff value for each antibody was analyzed via BIAevaluation software.
row,Degree of reduction (Fold) of koff against hz1E11,Binder
1,7.4 fold,"M1-L-A1-3-1C3 (hz1E11-3), periplasmic extract (antibody, V domains shown, Library clone expressed in bacteria with IPTG, tested as periplasmic extract; LCDR3 DQMYSTPWT) VH: EVQLVESGGGLVQPGGSLRLSCAASGFTFSSYTMSWVRQAPGKGLEWVAYISNGGGSTYYPDTVKGRFTISRDNAKNSLYLQMNSLRAEDTAVYYCARHLGGTASFDYWGQGTLVTVSS VL: DIQMTQSPSSLSASVGDRVTITCLASQTIGTWLAWYQQKPGKAPKLLIYVATSLADGVPSRFSGSGSGTDFTLTISSLQPEDFATYYCDQMYSTPWTFGQGTKVEIK"
2,5.8 fold,"M1-LH-A3-3-1A6 (antibody, name in Kabat numbering, V domains shown, hz1E11 library clone, periplasmic extract) VH: EVQLVESGGGLVQPGGSLRLSCAASGFTFSSYTMSWVRQAPGKGLEWVAYISNGGGSTYYPDTVKGRFTISRDNAKNSLYLQMNSLRAEDTAVYYCARNYGGTASFDYWGQGTLVTVSS VL: DIQMTQSPSSLSASVGDRVTITCLASQTIGTWLAWYQQKPGKAPKLLIYVATSLADGVPSRFSGSGSGTDFTLTISSLQPEDFATYYCQQLVRTPWTFGQGTKVEIK"

# Target: T2, HER2-ECD (ELISA antigen of Examples 13 and 14) (human, UniProt P04626 23-652)
# T2 construct: extracellular domain
# Assay: ELISA, periplasmic extract on HER2-ECD
row,binding result,Binder
1,binds,"hz1E11 CDR-L3 S93A (antibody, V domains shown, Alanine scanning variant, expressed in bacteria, periplasmic extract) VH: EVQLVESGGGLVQPGGSLRLSCAASGFTFSSYTMSWVRQAPGKGLEWVAYISNGGGSTYYPDTVKGRFTISRDNAKNSLYLQMNSLRAEDTAVYYCARHLGGTASFDYWGQGTLVTVSS VL: DIQMTQSPSSLSASVGDRVTITCLASQTIGTWLAWYQQKPGKAPKLLIYVATSLADGVPSRFSGSGSGTDFTLTISSLQPEDFATYYCQQLYATPWTFGQGTKVEIK"
2,binds,"hz1E11 CDR-H3 S100aA (antibody, name in Kabat numbering, V domains shown, Alanine scanning variant, expressed in bacteria, periplasmic extract) VH: EVQLVESGGGLVQPGGSLRLSCAASGFTFSSYTMSWVRQAPGKGLEWVAYISNGGGSTYYPDTVKGRFTISRDNAKNSLYLQMNSLRAEDTAVYYCARHLGGTAAFDYWGQGTLVTVSS VL: DIQMTQSPSSLSASVGDRVTITCLASQTIGTWLAWYQQKPGKAPKLLIYVATSLADGVPSRFSGSGSGTDFTLTISSLQPEDFATYYCQQLYSTPWTFGQGTKVEIK"

# The next lines start with the binder.
row,Binder,binding result
1,"hz1E11 CDR-L3 Y92A (antibody, V domains shown, Alanine scanning variant, expressed in bacteria, periplasmic extract) VH: EVQLVESGGGLVQPGGSLRLSCAASGFTFSSYTMSWVRQAPGKGLEWVAYISNGGGSTYYPDTVKGRFTISRDNAKNSLYLQMNSLRAEDTAVYYCARHLGGTASFDYWGQGTLVTVSS VL: DIQMTQSPSSLSASVGDRVTITCLASQTIGTWLAWYQQKPGKAPKLLIYVATSLADGVPSRFSGSGSGTDFTLTISSLQPEDFATYYCQQLASTPWTFGQGTKVEIK",binds
2,"hz1E11 CDR-L3 Q89A (antibody, V domains shown, Alanine scanning variant, expressed in bacteria, periplasmic extract) VH: EVQLVESGGGLVQPGGSLRLSCAASGFTFSSYTMSWVRQAPGKGLEWVAYISNGGGSTYYPDTVKGRFTISRDNAKNSLYLQMNSLRAEDTAVYYCARHLGGTASFDYWGQGTLVTVSS VL: DIQMTQSPSSLSASVGDRVTITCLASQTIGTWLAWYQQKPGKAPKLLIYVATSLADGVPSRFSGSGSGTDFTLTISSLQPEDFATYYCAQLYSTPWTFGQGTKVEIK",binds
3,"hz1E11 CDR-H3 H95A (antibody, name in Kabat numbering, V domains shown, Alanine scanning variant, expressed in bacteria, periplasmic extract) VH: EVQLVESGGGLVQPGGSLRLSCAASGFTFSSYTMSWVRQAPGKGLEWVAYISNGGGSTYYPDTVKGRFTISRDNAKNSLYLQMNSLRAEDTAVYYCARALGGTASFDYWGQGTLVTVSS VL: DIQMTQSPSSLSASVGDRVTITCLASQTIGTWLAWYQQKPGKAPKLLIYVATSLADGVPSRFSGSGSGTDFTLTISSLQPEDFATYYCQQLYSTPWTFGQGTKVEIK",binds
4,"hz1E11 CDR-L3 Q90A (antibody, V domains shown, Alanine scanning variant, expressed in bacteria, periplasmic extract) VH: EVQLVESGGGLVQPGGSLRLSCAASGFTFSSYTMSWVRQAPGKGLEWVAYISNGGGSTYYPDTVKGRFTISRDNAKNSLYLQMNSLRAEDTAVYYCARHLGGTASFDYWGQGTLVTVSS VL: DIQMTQSPSSLSASVGDRVTITCLASQTIGTWLAWYQQKPGKAPKLLIYVATSLADGVPSRFSGSGSGTDFTLTISSLQPEDFATYYCQALYSTPWTFGQGTKVEIK",binds
5,"hz1E11 CDR-L3 T94A (antibody, V domains shown, Alanine scanning variant, expressed in bacteria, periplasmic extract) VH: EVQLVESGGGLVQPGGSLRLSCAASGFTFSSYTMSWVRQAPGKGLEWVAYISNGGGSTYYPDTVKGRFTISRDNAKNSLYLQMNSLRAEDTAVYYCARHLGGTASFDYWGQGTLVTVSS VL: DIQMTQSPSSLSASVGDRVTITCLASQTIGTWLAWYQQKPGKAPKLLIYVATSLADGVPSRFSGSGSGTDFTLTISSLQPEDFATYYCQQLYSAPWTFGQGTKVEIK",binds
6,"hz1E11 CDR-L3 L91A (antibody, V domains shown, Alanine scanning variant, expressed in bacteria, periplasmic extract) VH: EVQLVESGGGLVQPGGSLRLSCAASGFTFSSYTMSWVRQAPGKGLEWVAYISNGGGSTYYPDTVKGRFTISRDNAKNSLYLQMNSLRAEDTAVYYCARHLGGTASFDYWGQGTLVTVSS VL: DIQMTQSPSSLSASVGDRVTITCLASQTIGTWLAWYQQKPGKAPKLLIYVATSLADGVPSRFSGSGSGTDFTLTISSLQPEDFATYYCQQAYSTPWTFGQGTKVEIK",binds
7,"hz1E11 CDR-H3 L96A (antibody, name in Kabat numbering, V domains shown, Alanine scanning variant, expressed in bacteria, periplasmic extract) VH: EVQLVESGGGLVQPGGSLRLSCAASGFTFSSYTMSWVRQAPGKGLEWVAYISNGGGSTYYPDTVKGRFTISRDNAKNSLYLQMNSLRAEDTAVYYCARHAGGTASFDYWGQGTLVTVSS VL: DIQMTQSPSSLSASVGDRVTITCLASQTIGTWLAWYQQKPGKAPKLLIYVATSLADGVPSRFSGSGSGTDFTLTISSLQPEDFATYYCQQLYSTPWTFGQGTKVEIK",binds
8,"hz1E11 CDR-H3 T99A (antibody, name in Kabat numbering, V domains shown, Alanine scanning variant, expressed in bacteria, periplasmic extract) VH: EVQLVESGGGLVQPGGSLRLSCAASGFTFSSYTMSWVRQAPGKGLEWVAYISNGGGSTYYPDTVKGRFTISRDNAKNSLYLQMNSLRAEDTAVYYCARHLGGAASFDYWGQGTLVTVSS VL: DIQMTQSPSSLSASVGDRVTITCLASQTIGTWLAWYQQKPGKAPKLLIYVATSLADGVPSRFSGSGSGTDFTLTISSLQPEDFATYYCQQLYSTPWTFGQGTKVEIK",binds
